In assay [1] the target is full-length pUL47 (RB-1B) with SR motif 3 mutated to AA, fused to the GAL4 DNA-binding domain (Marek's Disease Virus (Gallid alphaherpesvirus 2), strain RB-1B). Kind of assay: two-hybrid; SR mutants and Δ71-185 of pUL47 in pGBKT7 against p32(M9); β-galactosidase coloration and liquid β-galactosidase quantification relative to full-length pUL47 (1-808), triplicates over three experiments (Fig 4B, 4C).

The target in assay [2] is full-length pUL47 (RB-1B) with SR motif 4 mutated to AA, fused to the GAL4 DNA-binding domain (Marek's Disease Virus (Gallid alphaherpesvirus 2), strain RB-1B). The description is as above.
The target in assay [3] is pUL47 (RB-1B) domain 71-185 fused to the GAL4 DNA-binding domain (Marek's Disease Virus (Gallid alphaherpesvirus 2), strain RB-1B). The description is as above.
Assay [4] concerns the target chicken p32/C1QBP/gC1qR clone M9 (residues 76-278) fused to the GAL4 activation domain (UniProt A0A8V1AMS0). Kind of assay: yeast two-hybrid, liquid β-galactosidase (ONPG) assay. The following applies: triplicates over three independent experiments; for response: parent: 16.2.

This note sets out measurements from article PMC12380274.

Take “chicken p32/C1QBP/gC1qR clone M9 (residues 76-278) fused to the GAL4 activation domain (from UniProt A0A8V1AMS0 76-278) (domain or fragment)”: the reduction of β-galactosidase signal against full-length pUL47 in assay [1] and in assay [2] was 30% each time. In addition, the β-galactosidase signal, percent of full-length pUL47 in assay [3] came out at 16%.

As to “pUL47 (RB-1B) domain 71-185 fused to the GAL4 DNA-binding domain SR1 (SR motif 1, Ser-Arg to Ala-Ala)”, the response in assay [4] turned out to be 25.4 % vs 1-808.

“pUL47 (RB-1B) domain 71-185 fused to the GAL4 DNA-binding domain SR1 (Ser-Arg to Ala-Ala); SR2 (Ser-Arg to Ala-Ala)”: the response in assay [4] worked out at 24 % vs 1-808.

Regarding “pUL47 (RB-1B) domain 71-185 fused to the GAL4 DNA-binding domain SR2 (SR motif 2, Ser-Arg to Ala-Ala)”, in assay [4], the response worked out at 13 % vs 1-808.

Turning to “pUL47 (RB-1B) domain 71-185 fused to the GAL4 DNA-binding domain SR3 (Ser-Arg to Ala-Ala); SR4 (Ser-Arg to Ala-Ala)”, in assay [4], the response was 3.7 % vs 1-808.

For the substance “pUL47 (RB-1B) domain 71-185 fused to the GAL4 DNA-binding domain SR5 (SR motif 5, Ser-Arg to Ala-Ala)”, the response in assay [4] amounted to 20.4 % vs 1-808.

On to “pUL47 (RB-1B) domain 71-185 fused to the GAL4 DNA-binding domain SR5 (Ser-Arg to Ala-Ala); SR6 (Ser-Arg to Ala-Ala)”, for which, in assay [4], the response stood at 10.1 % vs 1-808.

“pUL47 (RB-1B) domain 71-185 fused to the GAL4 DNA-binding domain SR6 (SR motif 6, Ser-Arg to Ala-Ala)”: the response in assay [4] stood at 8.2 % vs 1-808.

For “pUL47 of Marek's Disease Virus (RB-1B), full length, fused to the GAL4 DNA-binding domain (pGBKT7-UL47) SR3 (Ser-Arg to Ala-Ala); SR4 (Ser-Arg to Ala-Ala)”, in assay [4] (parent: 100), the percent of parent is 71.2 % vs 1-808.
